This assay concerns the target ALIX BRO1 domain (human). Briefly: recruitment to supported lipid bilayers (time-lapse confocal fluorescence microscopy); supported bilayers DOPC:DOPE:PI:LBPA (4.99:2:1:2 mol) preincubated 40 min with 3.7 µM ALIX BRO1 domain or mutant, unbound protein removed, then 0.64 µM CHMP4B-488 for 25 min; ALIX buffer: 25 mM Hepes pH 7.4, 0.3 mM BAPTA, 0.3 mM NTA, 0.3 mM hydroxyethyl EDTA, 686 µM CaCl2 (20 µM free calcium).

Chain of ALIX BRO1 domain (human) (Q9WU78 1-359): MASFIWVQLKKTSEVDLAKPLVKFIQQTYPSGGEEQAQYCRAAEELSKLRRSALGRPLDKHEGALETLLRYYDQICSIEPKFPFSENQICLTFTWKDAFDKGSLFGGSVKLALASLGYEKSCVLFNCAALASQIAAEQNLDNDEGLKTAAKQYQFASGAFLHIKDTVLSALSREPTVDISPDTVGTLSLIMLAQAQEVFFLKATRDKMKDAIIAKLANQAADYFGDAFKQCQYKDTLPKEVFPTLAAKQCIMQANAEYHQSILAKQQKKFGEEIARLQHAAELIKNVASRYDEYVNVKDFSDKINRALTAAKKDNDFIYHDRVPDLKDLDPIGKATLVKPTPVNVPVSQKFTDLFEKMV

B1: Alexa Fluor 488 CHMP4B (natural protein)
chain: MSVFGKLFGAGGGKAGKGGPTPQEAIQRLRDTEEMLSKKQEFLEKKIEQELTAAKKHGTKNKRAALQALKRKKRYEKQLAQIDGTLSTIEFQREALENANTNTEVLKNMGYAAKAMKAAHDNMDIDKVDELMQDIADQQELAEEISTAISKPVGFGEEFDEDELMAELEELEQEELDKNLLEISGPETVPLPNVPSIALPSKPAKKKEEEDDDMKELENWAGSM
modifications: Alexa Fluor 488 (labelled with Alexa Fluor 488 tetrafluorophenyl ester, 1:2 protein:dye)
For the molecule B1, the apparent t1/2 of recruitment was 5 min.

Source of the values: PMC7054990.
